# Assay results reported in patent publication US11840557B2, “Wnt7 variants capable of activating g-protein coupled receptor (Gpr)124/Reck/frizzled/lipoprotein receptor-related protein (LRP)-mediated Wnt signaling” (UNIVERSITÉ LIBRE DE BRUXELLES, priority 2018, dated 2023).
# Assays:
# wnt7aa morphants = assay: Trunk DRG rescue in wnt7aa morphant zebrafish larvae; assay type: in vivo, Danio rerio; conditions: 100 pg mRNA injection, 72 hpf
# Protocol: Zebrafish (Danio rerio) were raised and handled under standard conditions following the rules of the State of Belgium (protocol approval number: CEBEA-IBMM-2017-22:65). The following line was used: Tg(−17.0neurog1:EGFP)^w61 (McGraw et al., J. Neurosci 28(47):12558-69 (2008)).
# (§1) The following splice-blocking morpholino (MOs) (GeneTools, Eugene, OR) were injected into embryos at the one-cell stage: wnt7aa ([…], 6 ng) (SEQ ID NO.: 123). Synthetic mRNAs were transcribed from pCS2 plasmids after NotI digestion using the mMessage mMachine SP6 Kit (Ambion, Carlsbad, CA) and injected into one-cell stage zebrafish embryo. For Xenopus laevis microinjection, 15 pg of wnt7a or wnt7a^K190A or wnt7a^1-278 mRNA were injected into one ventral blastomere of the four-cell stage embryo.
# (§2) zebrafish embryos were imaged with an LSM710 confocal microscope and images were processed in ImageJ. Images of zebrafish development phenotypes were taken on Leica M165 FC. Xenopus larvae were imaged with an Olympus SZX16.
# [1] = tested on: Wnt7aa^−/− mutant zebrafish; assay: Transgenic endothelial expression (kdrl promoter) in Wnt7aa−/− zebrafish: hindbrain CtAs and GLUT1 staining; assay type: in vivo, Danio rerio; conditions: 60 hpf embryos
# Text: (A) Dorsal views of the cerebral vasculatures of 60 hpf WT or Wnt7aa^−/− Tg(kdrl:EGFP) embryos. In Wnt7a^−/− mutants, the intracerebral CtAs are lacking. Wnt7, Wnt7a^K190A or Wnt7a^1-278 were transiently expressed in the endothelium of Wnt7aa^−/− embryos under the control of an endothelial-specific kdrl (Vascular endothelial growth factor receptor kdr-like) promoter. The Wnt7 ligands were expressed as a biscistronic construct with BFP (Blue Fluorescent Protein) used as transgenesis marker. In contrast to uninjected embryos, Wnt7, Wnt7a^K190A or Wnt7a^1-278 restore hindbrain CtAs formation in Wnt7aa^−/− mutants as quantified in (B). (C) Anti-GLUT1 staining of the CtAs after transgenic expression of Wnt7, Wnt7a^K190A and Wnt7a^1-278 in 60 hpf Wnt7aa^−/− embryos. Transgenic expression was achieved as in (A).
# Mouse Wnt7, Wnt7a^K190A and Wnt7a^1-278 were transiently expressed in the endothelium of Wnt7aa^−/− embryos under the control of an endothelial-specific kdrl (Vascular endothelial growth factor receptor kdr-like) promoter. The Wnt7 ligands were expressed as a biscistronic construct with BFP (Blue Fluorescent Protein) as transgenesis marker.
# all 10 Fz genes = assay: STF luciferase assay after co-transfection with all 10 Fz genes, no Gpr124/Reck; assay type: cell-based; conditions: in the absence of Gpr124/Reck
# Protocol: Cells were plated into 96-well plates and transfected after 24 h in triplicate with Lipofectamine 2000 (Invitrogen, Carlsbad, Calif.). The amount of plasmid DNA transfected per well was optimized for each expression vector: Renilla luciferase (0.5 ng), Wnt (20 ng), Fz (5 ng), LRP (2.5 ng), Gpr124 (10 ng), Reck (10 ng) unless otherwise indicated. The total amount of DNA was adjusted to 100 ng per well with the empty pCS2 vector. Cells were harvested in passive lysis buffer (E1960, Promega, Wisconsin) and the activities of the Firefly and Renilla luciferases were measured sequentially using the Dual-Luciferase Reporter Assay system (E1960, Promega, Madison, Wis.) 48 h post-transfection.
# zebrafish zygote = assay type: in vivo, Danio rerio; conditions: injection in zygote, 3 dpf larvae
# Protocol: as §1, §2
molecule,measurement,setting,value
"Wnt7a^1-278: the N-terminal domain of Wnt7a, single domain truncated variant (protein, left off: small tags and cut ends, the N-terminal domain of Wnt7a, single domain truncated variant) LGASIICNKIPGLAPRQRAICQSRPDAIIVIGEGSQMGLDECQFQFRNGRWNCSALGERTVFGKELKVGSREAAFTYAIIAAGVAHAITAACTQGNLSDCGCDKEKQGQYHRDEGWKWGGCSADIRYGIGFAKVFVDAREIKQNARTLMNLHNNEAGRKILEENMKLECKCHGVSGSCTTKTCWTTLPQFRELGYVLKDKYNEAVHVEPVRASRNKRPTFLKIKKPLSYRKPMDTDLVYIEKSPNYC",DRG rescue,wnt7aa morphants,significant DRG rescues
same,blood-brain barrier (GLUT1 expression),[1]; anti-GLUT1 staining of CtAs,restored blood-brain barrier
same,brain angiogenesis / hindbrain CtAs formation,[1]; transient endothelial expression,triggered GPR124/RECK-dependent brain angiogenesis
same,signaling through any Fz,all 10 Fz genes,failed to signal through any Fz
same,mRNA dose well tolerated without posteriorizing or gross anatomical alterations,zebrafish zygote,up to 1 ng
